Results taken from the RNAGym collection of RNA variant scans (doi:10.1073/pnas.2313332121).

B1: TPR t1 (parent)
chain: GACCAAUCUGCCCUCAGAGCUCGAGAACAUCUUCGGAUGCAGAGGAGGCAGGCUUCGGUGGCGCGAUAGCGCCAACGUCCUCAACCUCCAAUGCAUCCCACCACAUGAUGAUGCCUGAAGAGCCUUGGUUUUUUG

Variants of: B1
Test: polymerase ribozyme fitness, log enrichment relative to wild type (log ratio); higher = more active; in vitro selection for triplet polymerase activity
How it was run: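 Each subunit of a heterodimeric triplet polymerase ribozyme was mutagenized into a library by PCR, transcribed, and subjected to one round of in vitro selection, run in triplicate. Libraries were annealed with a biotinylated primer, the partner subunit and triplets, incubated frozen at −7 °C, and extended constructs were gel-excised, captured on streptavidin beads and recovered by RT-PCR. Input and output libraries were sequenced on Illumina, keeping genotypes with ≥10 input reads and ≥1 read per output. Fitness is log base 2 of genotype enrichment divided by wild-type enrichment, from inverse-variance-weighted replicate averages.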

| Variant | polymerase ribozyme fitness (log ratio) |
| --- | --- |
| GACCAAUCUGCCCUCAGAGCUCGAGAACAUCUUCGGAUGCAGAGGAGGCCGGCUUCGGUGGCGCGAUAGCGCCAACGUCCUCAACCUCCAAUGCAUCCCACCACAUGAUGAUGCCUUAAGAGCCUUGGUUUUUUG [A50C G117U] | -2.95 |
| GAGCAAUCUGCCCUCAGAGCUCGAGAACUUCUUCGGAUGCAGAGGAGGAAGGCUUCUGUGGCGCGAUAGCGCCAACGUCCUCAACCUCCAAUGCAUCCCACCACAUGAUGAUGCCUGAAGGGCCUUGGUUUUUUG [C3G A29U C49A G57U A121G] | -2.13 |
| GACCAAUCUGCCAUCAGAGCUCGAGAACAUCUUCGGAUGCAGAGGAGGCAGGCUUCGGUGGCGCGAUAGCGCGAACGUCCUCAACCUCCAAUGCAUCCCACCACAUGAUGAUGCCUGAAGAGCCUUGGUUUUUUG [C13A C73G] | -3.11 |
| GGCCAAUCUGCCCUCAGAGCUCGAGAACAUCUUCGGAUGCAGAGGAGGCAGGCUUCGGUGGCGCGAUAGCGCCAACGUCCUCAACCUCCAAUGCAUCCCACCACAUGAUAAUGCCUGAAGAGCAUUGGUUUUUUG [A2G G110A C124A] | -0.428 |
| GACCAAUCUGCCUUCAGAGCUCGAGAGCAUCUUCGGAUGCAGAGGAAGCAGGCUUCGGUGGCGUGAUAGCGCCAACGUCCUCAACCUCCAAUGCAUCCCACCACAUGAUGAUGCCUGAAGAGCCUUGGUUUUUUG [C13U A27G G47A C64U] | -3.03 |
| GACCAAUCUGCCCUCAGAGCUCGAGAACAUAUUCGGAUGCAGAGGAGGCAGGCUUCGGUGGCGCGAUAGCGCCAACGUCCUCAACCUCCAAUGCAUCCCACCACAUCAUGAUGCCUGAAGAGCCUUGGUUUUUUG [C31A G107C] | -4.91 |
| GACCAAUCUGCCCUCAGAGCUCGAGAACAUCUUCGGAUGCAGAGGAGGCAGGCUUCGGUGGCGCGAUAGCGCCAACGUCCUCAACCUCCAAUGCAUCCUACCACAUGAUGAUGCCUGAGGAGCCUUGGUUUUUUG [C99U A119G] | -1.65 |
| GACCAUUCUGCCCUCAGAGCUCGAGAACAUCUUCGAAUGCAGAGGAGGCAGGCUUCGGUGGCGCGAUAGCGCCAACGUCCUCAACCUCCAAUGCAUCCCACCACAUGAUGAUGCCUGAAGAGCCUUGGUUUUUUG [A6U G36A] | -0.596 |
| GACCAAUCUCCCCUCAGAGCUCGAGAACAUCCUCGGAUGCAGAGGAGGCAGACUUCGGUGGCGCGAUACCGCCAACGUCCUCAACCUCCAAUGCAUCCCACCACAUGAUGAAGCCUGAAGAGCCUUGAUUUUUUG [G10C U32C G52A G69C U112A G128A] | -4.78 |
| GAACAGUCUGCCUUGAGAGCUCGAGAACAUCUUCGGAUGCAGAGGAGGCAGGCUUCGGCGGCGCGAUAGCGCCAACGUCCUCAACCUCCAAUGCAUCCCACCACAUGAUGAUGCCUGAAGAGCCUUGGUUUUUUG [C3A A6G C13U C15G U59C] | -3.21 |
| GACCAAUCUGCCCUCAGUGCUCGAGAACAUCUUCGGAUGCAGAGGAGGCAGACUUCGGUGGCGCGAUAGCGAAAACGUCCUCAACCUCCAAUGCAUCCCACCACAUGAUGAAGCCUGAAGAGCCUUGGUUUUUUG [A18U G52A C72A C73A U112A] | -3.87 |
| GACCAAUCUGCCCUCAGAGCUCGAGAACAUCUUCGGCUGCAGAGGAGGCAGGCUUCGGUGGCGCGAUAACGCCAACGUCCUCAACCUCCAAUGCAUCCCACCACAUGAUGAUGCCUGAAGAGCCUUGGUUUUUUG [A37C G69A] | -3.26 |
| GACCAAUCUGGCCUCAGAGCUCGAGAACAUCUUCGGAUGCAGAGGAGGCAGGCUUCGGUGGCGCGAUAGCGCCAACGUCCUCAACCUCCAAUGCAUCCCACCACAUGAUGAUGCGUGAAGAGCCUUGGUUUUUUG [C11G C115G] | -1.35 |
| GACCAAUCUGCCCUCAGAGCUCGAGAACAUCUUCGGAUGCAGAGAAGGCAGGCUUCGGUGGCGCGAUAGCGCCAACGCCCUCAACAUCCAAUGCAUCCCACCACAUGAUGAUGCCUGAAUAGCCUUGGUUUUUUG [G45A U78C C86A G120U] | -2.19 |
| GACCAAUUUGCCCUCAGAGCUCGAGAACAUCUUCGGAUGCAGAGGAGGCAGGCUUCGGUGGCGCGAUAGCGCCAACGUCCUCAACCUCCAAUGCAUCCCACCUCAUGAUGAUGCGUGAAGAGCCUUGGUUUUUUG [C8U A103U C115G] | -5.83 |
| GACCAAUCUGCCCUCAGAGCUCGAGAACAUCUUCGGAUGCAGAGGAGGCAGUCUUCGGUGGCGCGAUAGCGUCAACGCCCUCAACCUCCAAUGCAUCCCACCACAUGAUGAUGCCUGAAGCGCCUUGGUUUUUUG [G52U C72U U78C A121C] | 1.26 |
| GACCAAUCUGCCCUCAGAGCUCGAGAACAUCUUCGGAUGCAGAGGAGGCUGGCUUCGGUGGCGCGAUAGCGCCAACAUCCUCAACCUCCAAUGCAUUCCACCACACGAUGAUGCCUGAAGAGCCUUGGUUUUUUG [A50U G77A C97U U106C] | -2.11 |
| GACCAAUCUGCCCUCAGAGCUCGAGAACAUCUGCGGAUGCAGAGGAGGCAGGCUUCGGUGGCGCGAUAGUGCCAACGGCCUCAACCUCCAAUGCAUCCCACCACAUGAUGAUGCCUGAAGAGCCUUGGUUUUUUG [U33G C70U U78G] | -6.53 |
| GACCAAUCUGCCCCCAGAGCUCGAGAACAUCUUCGGUUGCAGAGGAGGCAGGCUUCGGUGGCGCGAUAGCGCCAACGUCCUCAACCUCCAAUGCAUCCCACCACAUGAUGAUGCCUGAAGAGCCUUGGUUUUUUG [U14C A37U] | -1.93 |
| GACCAAUCUGACCUCAGAGCUCGAGAACAUCUUCGGAUGCAGAGGAGGCAGGCUUCGGUGGCGCGAUAGCGCCAACGUCCUCAACCUACAAUGCAUCCCACCACAUGAUGAUGCCUGAAGAGCCUUGGUUUUUUG [C11A C88A] | -2.15 |
| GACCAAUCUGCCCUCAGAGCUCGAGAACAUCUUCUGAUGCAGAGGAGGCAGGUUUCGGUGGCGCGAUAGCGCCAACGUCCUCAACCUCCAAUGCAUCCCACCACAUGAUGAUGCCUGAAGAGCGUUGGUUUUUUG [G35U C53U C124G] | -4.66 |
